# Measured values reported in patent publication US20240082346A1 (MAINLINE BIOSCIENCES SHANGHAI, published 2024).
# Bridge positions count the residues as written; N and C are the ends. Square brackets hold non-standard residues; d marks the D form. * marks the point of attachment. 2Nal = N[C@@H](Cc1ccc2ccccc2c1)C(=O)O; Lys(iPr) = CC(C)NCCCC[C@H](N)C(=O)O; Palmitoyl = CCCCCCCCCCCCCCCC(=O)*; Lauroyl = CCCCCCCCCCCC(=O)*; hCys = N[C@@H](CCS)C(=O)O; PhAc = O=C(Cc1ccccc1)*; Bz = O=C(c1ccccc1)*; Mpa = O=C(O)CCS; iPr = CC(C)*
# B1: cyclo[Mpa-Tyr-Lys(iPr)-(D-Arg)-2Nal-Gly-Cys]-Lys(iPr)-Gly-NH(Et) (peptide)
# peptide: [Mpa]YK(iPr)[dR][2Nal]GCK(iPr)G-NHEt
# modifications: disulfide 1-7; also: acetate salt
# notes: Acetate salt; also called MLB-014
# B2: cyclo[Mpa-Tyr-Lys(iPr)-(D-Arg)-2Nal-Gly-Cys]-Lys(iPr)-Lys(Ac)-NH(Et) (peptide)
# peptide: [Mpa]YK(iPr)[dR][2Nal]GCK(iPr)K(Ac)-NHEt
# modifications: disulfide 1-7; also: acetate salt
# notes: Acetate salt; also called MLB-027
# B3: Benzoyl-cyclo[Cys-Tyr-Lys(iPr)-(D-Arg)-2Nal-Gly-Cys]-Lys(iPr)-Gly-NH2 (peptide)
# peptide: Bz-CYK(iPr)[dR][2Nal]GCK(iPr)G-NH2
# modifications: disulfide 1-7; also: acetate salt
# notes: Acetate salt; also called MLB-023
# B4: MLB-030 (compound of Example 20; structure given only as drawing CHEM-US-00013) (peptide)
# peptide: Bz-CYK(iPr)[dR][2Nal]GCK(iPr)G-NH2
# modifications: linker 1-7 via 1,2‑bis(methylene)benzene; also: acetate salt
# notes: Acetate salt
# B5: cyclo[Mpa-Tyr-Lys(iPr)-(D-Arg)-2Nal-Gly-Cys]-Lys(iPr)-Lys(palmitoyl)-NH(Et) (peptide)
# peptide: [Mpa]YK(iPr)[dR][2Nal]GCK(iPr)K(Palmitoyl)-NHEt
# modifications: disulfide 1-7; also: acetate salt
# notes: Acetate salt; also called MLB-029
# B6: MLB-033 (compound of Example 23; structure given only as drawing CHEM-US-00016) (peptide)
# peptide: Ac-CYK(iPr)[dR][2Nal]GCK(iPr)G-NH2
# modifications: linker 1-7 via 1,3‑bis(methylene)benzene; also: acetate salt
# notes: Acetate salt
# B7: Benzoyl-cyclo[Cys-Tyr-Lys(iPr)-(D-Arg)-2Nal-Gly-hCys]-Lys(iPr)-Gly-NH2 (peptide)
# peptide: Bz-CYK(iPr)[dR][2Nal]G[hCys]K(iPr)G-NH2
# modifications: disulfide 1-7; also: acetate salt
# notes: Acetate salt; also called MLB-022
# B8: cyclo[Mpa-Tyr-Lys(iPr)-(D-Arg)-2Nal-Gly-Cys]-Lys(iPr)-Lys(lauroyl)-NH(Et) (peptide)
# peptide: [Mpa]YK(iPr)[dR][2Nal]GCK(iPr)K(Lauroyl)-NHEt
# modifications: disulfide 1-7; also: acetate salt
# notes: Acetate salt; also called MLB-028
# B9: MLB-032 (compound of Example 22; structure given only as drawing CHEM-US-00015) (peptide)
# peptide: Ac-CYK(iPr)[dR][2Nal]GCK(iPr)G-NH2
# modifications: linker 1-7 via 1,2‑bis(methylene)benzene; also: acetate salt
# notes: Acetate salt
# B10: cyclo[Mpa-Arg-Tyr-Arg-2Nal-Gly-Cys]-Arg-Gly-(D-Phe)-Gly-NH2 (peptide)
# peptide: [Mpa]RYR[2Nal]GCRG[dF]G-NH2
# modifications: disulfide 1-7; also: acetate salt
# notes: Acetate salt; also called MLB-011
# B11: Ac-cyclo[hCys-Tyr-Lys(iPr)-(D-Arg)-2Nal-Gly-Cys]-Lys(iPr)-Gly-NH(Et) (peptide)
# peptide: Ac-[hCys]YK(iPr)[dR][2Nal]GCK(iPr)G-NHEt
# modifications: disulfide 1-7; also: acetate salt
# notes: Acetate salt; also called MLB-026
# B12: Phenylacetyl-cyclo[hCys-Tyr-Lys(iPr)-(D-Arg)-2Nal-Gly-Cys]-Lys(iPr)-Gly-NH2 (peptide)
# peptide: PhAc-[hCys]YK(iPr)[dR][2Nal]GCK(iPr)G-NH2
# modifications: disulfide 1-7; also: acetate salt
# notes: also called MLB-025
# B13: cyclo[Mpa-Tyr-Lys(iPr)-(D-Arg)-2Nal-Gly-Cys]-Arg-Gly-(D-Phe)-Gly-NH2 (peptide)
# peptide: [Mpa]YK(iPr)[dR][2Nal]GCRG[dF]G-NH2
# modifications: disulfide 1-7; also: acetate salt
# notes: Acetate salt; also called MLB-002
# B14: cyclo[Mpa-Tyr-Arg-(D-Arg)-2Nal-Gly-Cys]-Arg-Gly-(D-Phe)-Gly-NH2 (peptide)
# peptide: [Mpa]YR[dR][2Nal]GCRG[dF]G-NH2
# modifications: disulfide 1-7; also: acetate salt
# notes: Acetate salt; also called MLB-001
# B15: Ac-cyclo[hCys-Tyr-Lys(iPr)-(D-Arg)-2Nal-Gly-Cys]-Lys(iPr)-Gly-NH2 (peptide)
# peptide: Ac-[hCys]YK(iPr)[dR][2Nal]GCK(iPr)G-NH2
# modifications: disulfide 1-7; also: acetate salt
# notes: Acetate salt; also called MLB-010
# B16: Benzoyl-cyclo[hCys-Tyr-Lys(iPr)-(D-Arg)-2Nal-Gly-Cys]-Lys(iPr)-Gly-NH2 (peptide)
# peptide: Bz-[hCys]YK(iPr)[dR][2Nal]GCK(iPr)G-NH2
# modifications: disulfide 1-7; also: acetate salt
# notes: Acetate salt; also called MLB-021
# B17: cyclo[Mpa-Tyr-Lys(iPr)-(D-Arg)-2Nal-Gly-Cys]-(D-Arg)-Gly-(D-Phe)-Gly-NH2 (peptide)
# peptide: [Mpa]YK(iPr)[dR][2Nal]GC[dR]G[dF]G-NH2
# modifications: disulfide 1-7; also: acetate salt
# notes: also called MLB-004
# B18: Benzoyl-cyclo[hCys-Tyr-Lys(iPr)-(D-Arg)-2Nal-Gly-Cys]-Lys(iPr)-Gly-NH(Et) (peptide)
# peptide: Bz-[hCys]YK(iPr)[dR][2Nal]GCK(iPr)G-NHEt
# modifications: disulfide 1-7; also: acetate salt
# notes: Acetate salt; also called MLB-024
# Molecular target: T1, Human chemokine receptor CXCR4 (human, UniProt P61073 1-352)
# T1 construct: whole, on cells; Membranes of Chem-1 cells expressing human CXCR4 (0.5 ug membrane protein per aliquot); also called C-X-C chemokine receptor type 4; fusin
# T1 sequence (P61073 whole entry): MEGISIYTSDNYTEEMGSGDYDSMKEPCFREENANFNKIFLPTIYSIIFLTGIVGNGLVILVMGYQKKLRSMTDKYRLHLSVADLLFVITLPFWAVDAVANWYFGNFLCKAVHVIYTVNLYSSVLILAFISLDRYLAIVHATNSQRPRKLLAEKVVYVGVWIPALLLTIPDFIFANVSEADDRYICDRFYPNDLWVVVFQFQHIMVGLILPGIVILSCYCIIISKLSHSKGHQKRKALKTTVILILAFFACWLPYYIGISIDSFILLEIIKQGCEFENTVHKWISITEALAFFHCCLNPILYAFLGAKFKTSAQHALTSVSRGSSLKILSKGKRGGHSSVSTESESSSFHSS
# Assay: displacement of [125I]SDF-1α (0.03 nM) from membranes of Chem-1 cells expressing human CXCR4
# Protocol: Human CXCR4/¹²⁵I-SDF-1α Binding Inhibition Assay: Human chemokine receptor CXCR4 expressed in Chem-1 cells were used in modified HEPES buffer pH 7.4. A 0.5 μg (Membrane protein may change from lot to lot, the concentration used were adjusted as necessary), aliquot was incubated with 0.03 nM [¹²⁵I]SDF-1α for 90 minutes at 25° C. Non-specific binding was estimated in the presence of 30 nM SDF-la. Membranes were filtered and washed, filters were then counted to determine [¹²⁵I]SDF-1α specifically bound. Compounds were screened starting at 10 μM with 11-point dilutions (Valenzuela-Fernandez A, et al. J Biol Chem. 277(18):15677, 2002).
Molecule,Binding Kb,IC50
[Mpa]Y[Lys(iPr)][dR][2Nal]GC[Lys(iPr)]G[2Nal]G-NH2 (disulfide 1-7),0.29 nM,0.95 nM
B1,0.19 nM,0.64 nM
B2,0.15 nM,0.48 nM
B3,1 nM,3.4 nM
B4,0.39 nM,1.3 nM
B5,3.2 nM,11 nM
B6,0.99 nM,3.3 nM
B7,0.21 nM,0.71 nM
B8,2.5 nM,8.2 nM
B9,0.12 nM,0.4 nM
B10,> 1000 nM,
B11,0.27 nM,0.89 nM
B12,0.25 nM,0.84 nM
B13,0.28 nM,0.92 nM
B14,7.3 nM,24 nM
B15,0.17 nM,0.56 nM
B16,0.13 nM,0.42 nM
B17,0.21 nM,0.7 nM
B18,0.39 nM,1.3 nM
